Where no end group is shown, it is not given here.
Tests used:
[1] = molecular target: T1, Anti-PSMA Fab (SEQ ID NOs: 19, 20); experiment: phage binding ELISA; clonal phage on biotinylated PSMA Fab captured on neutravidin plates, anti-M13 HRP detection
T1 construct: Biotinylated Fab captured on neutravidin coated plates in the phage ELISA; also called 006 PSMA Fab
Description: (§1) Clonal phage were harvested as crude supernatants and screened via standard ELISAs. […] Prior to the addition of clonal phage. wells were incubated with blocking buffer and PSMA antigen or blocking buffer alone. Without washing or aspirating, clonal phage supernatants were then added to the wells and incubated for a short time. Wells were then washed followed by detection of bound phage using a horse radish conjugated anti-M13 antibody.

[2] = molecular target: T1, Anti-PSMA Fab (SEQ ID NOs: 19, 20); experiment: phage binding ELISA on PSMA Fab coated plates; competitor: PSMA antigen
Description: as §1

[3] = molecular target: T2, Anti-PSMA Fab (SEQ ID NOs: 19, 20); experiment: phage binding ELISA; PSMA Fab on plate pre-incubated with PSMA antigen as competitor, anti-M13 HRP detection;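 further: crude clonal phage supernatants added without washing to wells preincubated with PSMA in blocking buffer, compared with wells receiving blocking buffer only, then bound phage detected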
T2 construct: Biotinylated PSMA Fab captured on neutravidin coated plates in the phage ELISA; also called 006 PSMA Fab
Description: as §1

[4] = molecular target: T2, Anti-PSMA Fab (SEQ ID NOs: 19, 20); experiment: phage binding ELISA; biotinylated PSMA Fab on neutravidin plate, clonal phage supernatant, anti-M13 HRP detection;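 further: wells were preincubated with blocking buffer either containing PSMA antigen or without it before crude phage supernatant was added, briefly incubated, then washed prior to detection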
Description: as §1

[5] = molecular target: T3, Anti-PSMA Fab (SEQ ID NOs: 19, 20); experiment: phage binding ELISA; biotinylated anti-PSMA Fab captured on neutravidin, bound phage detected with anti-M13 HRP
T3 construct: Biotinylated and captured on neutravidin coated plates in the phage ELISA; also called 006 PSMA Fab
Description: as §1

[6] = molecular target: T3, Anti-PSMA Fab (SEQ ID NOs: 19, 20); experiment: phage binding ELISA on captured anti-PSMA Fab; PSMA antigen as competitor
Description: as §1

Binder: HVKLCKPAWMCQGL [Phage-1769]
- Anti-PSMA Fab (SEQ ID NOs: 19, 20) signal [1]: 2.18
- Anti-PSMA Fab signal in the presence of PSMA [2]: 0.0831

B1: Phage-1831 (peptide)
peptide: IIPWCKPAWMCSGM
notes: tested as crude clonal phage supernatant
- Anti-PSMA Fab signal in the presence of PSMA [3]: 0.275
- Anti-PSMA Fab (SEQ ID NOs: 19, 20) signal [4]: 2.29

B2: Phage-1832 (peptide)
peptide: MGKWCIPEWMCNVS
notes: as for B1
- Anti-PSMA Fab signal in the presence of PSMA [3]: 0.0652
- Anti-PSMA Fab (SEQ ID NOs: 19, 20) signal [4]: 2.29

Binder: IDIRCTPIWMCVGF [Phage-1789 (clonal phage displaying the peptide of SEQ ID NO: 2085)]
- Anti-PSMA Fab (SEQ ID NOs: 19, 20) signal [5]: 1.57
- Anti-PSMA Fab signal in the presence of PSMA [6]: 0.0801

B3: Phage-1841 (peptide)
peptide: TDKWCIPPWMCMLQ
notes: as for B1
- Anti-PSMA Fab signal in the presence of PSMA [3]: 0.0865
- Anti-PSMA Fab (SEQ ID NOs: 19, 20) signal [4]: 2.23

Binder: EGIRCTPIWMCEGF [Phage-1774]
- Anti-PSMA Fab (SEQ ID NOs: 19, 20) signal [1]: 2.09
- Anti-PSMA Fab signal in the presence of PSMA [2]: 0.0778

Binder: VGKLCVPEWMCVGL [Phage-1767]
- Anti-PSMA Fab (SEQ ID NOs: 19, 20) signal [1]: 2.25
- Anti-PSMA Fab signal in the presence of PSMA [2]: 0.063

Binder: FEKLCVPKWMCEGI (also called Peptide-220) [Phage-1770]
- Anti-PSMA Fab (SEQ ID NOs: 19, 20) signal [1]: 2.17
- Anti-PSMA Fab signal in the presence of PSMA [2]: 0.0601

B4: Phage-1843 (peptide)
peptide: LDRWCIPEWMCEMF
notes: as for B1
- Anti-PSMA Fab signal in the presence of PSMA [3]: 0.0928
- Anti-PSMA Fab (SEQ ID NOs: 19, 20) signal [4]: 2.22

Binder: VTKWCIPPWMCEVT (also called Peptide-230) [Phage-1780 (clonal phage displaying the peptide of SEQ ID NO: 2076)]
- Anti-PSMA Fab (SEQ ID NOs: 19, 20) signal [5]: 2
- Anti-PSMA Fab signal in the presence of PSMA [6]: 0.0864

B5: Phage-1839 (peptide)
peptide: YDILCRPSWMCSWV
notes: as for B1
- Anti-PSMA Fab signal in the presence of PSMA [3]: 0.145
- Anti-PSMA Fab (SEQ ID NOs: 19, 20) signal [4]: 2.24

Binder: FVPLCKPAWMCSFV [Phage-1768]
- Anti-PSMA Fab (SEQ ID NOs: 19, 20) signal [1]: 2.2
- Anti-PSMA Fab signal in the presence of PSMA [2]: 0.111

Binder: FEKWCTPPWMCSLF [Phage-1772]
- Anti-PSMA Fab (SEQ ID NOs: 19, 20) signal [1]: 2.11
- Anti-PSMA Fab signal in the presence of PSMA [2]: 0.203

Binder: GEKWCIPDWMCSGF [Phage-1783 (clonal phage displaying the peptide of SEQ ID NO: 2079)]
- Anti-PSMA Fab (SEQ ID NOs: 19, 20) signal [5]: 1.91
- Anti-PSMA Fab signal in the presence of PSMA [6]: 0.148

B6: Phage-1838 (peptide)
peptide: VMKWCIPVWMCGGM
notes: as for B1
- Anti-PSMA Fab signal in the presence of PSMA [3]: 0.291
- Anti-PSMA Fab (SEQ ID NOs: 19, 20) signal [4]: 2.26

Binder: LDNWCKPSWMCTGF [Phage-1777 (clonal phage displaying the peptide of SEQ ID NO: 2073)]
- Anti-PSMA Fab (SEQ ID NOs: 19, 20) signal [5]: 2.05
- Anti-PSMA Fab signal in the presence of PSMA [6]: 0.0633

Binder: LTKLCIPDWMCSEF [Phage-1776 (clonal phage displaying the peptide of SEQ ID NO: 2072)]
- Anti-PSMA Fab (SEQ ID NOs: 19, 20) signal [5]: 2.07
- Anti-PSMA Fab signal in the presence of PSMA [6]: 0.0876

Binder: ISKWCIPEWMCTSP [Phage-1787 (clonal phage displaying the peptide of SEQ ID NO: 2083)]
- Anti-PSMA Fab (SEQ ID NOs: 19, 20) signal [5]: 1.73
- Anti-PSMA Fab signal in the presence of PSMA [6]: 0.107

B7: Phage-1837 (peptide)
peptide: GLNWCTPTWMCQGF
notes: as for B1
- Anti-PSMA Fab signal in the presence of PSMA [3]: 0.0833
- Anti-PSMA Fab (SEQ ID NOs: 19, 20) signal [4]: 2.26

Binder: IPKSCIPSWMCTGF [Phage-1775 (clonal phage displaying the peptide of SEQ ID NO: 2071)]
- Anti-PSMA Fab (SEQ ID NOs: 19, 20) signal [5]: 2.08
- Anti-PSMA Fab signal in the presence of PSMA [6]: 0.101

B8: Phage-1840 (peptide)
peptide: MVKWCIPSWMCDSV
notes: as for B1
- Anti-PSMA Fab signal in the presence of PSMA [3]: 0.109
- Anti-PSMA Fab (SEQ ID NOs: 19, 20) signal [4]: 2.23

Binder: VEKLCTPIWMCLGF [Phage-1785 (clonal phage displaying the peptide of SEQ ID NO: 2081)]
- Anti-PSMA Fab (SEQ ID NOs: 19, 20) signal [5]: 1.84
- Anti-PSMA Fab signal in the presence of PSMA [6]: 0.0705

Binder: LEKTCIPTWMCVGF [Phage-1784 (clonal phage displaying the peptide of SEQ ID NO: 2080)]
- Anti-PSMA Fab (SEQ ID NOs: 19, 20) signal [5]: 1.88
- Anti-PSMA Fab signal in the presence of PSMA [6]: 0.0732

B9: Phage-1836 (peptide)
peptide: WLPMCRPAWMCAGL
modifications: cysteine pairing not given here; also: displayed on phage as pIII fusion, pIII sequence and linker not given here
notes: as for B1
- Anti-PSMA Fab signal in the presence of PSMA [3]: 0.0653
- Anti-PSMA Fab (SEQ ID NOs: 19, 20) signal [4]: 2.27

Binder: DLRLCKPAWMCYFI [Phage-1773]
- Anti-PSMA Fab (SEQ ID NOs: 19, 20) signal [1]: 2.11
- Anti-PSMA Fab signal in the presence of PSMA [2]: 0.0751

B10: Phage-1834 (peptide)
peptide: VERMCMPAWMCDMF
notes: as for B1
- Anti-PSMA Fab signal in the presence of PSMA [3]: 0.0862
- Anti-PSMA Fab (SEQ ID NOs: 19, 20) signal [4]: 2.28

Binder: IDKLCIPFWMCENL [Phage-1771]
- Anti-PSMA Fab (SEQ ID NOs: 19, 20) signal [1]: 2.16
- Anti-PSMA Fab signal in the presence of PSMA [2]: 0.0699

Binder: VVKACIPTWMCQFV [Phage-1779 (clonal phage displaying the peptide of SEQ ID NO: 2075)]
- Anti-PSMA Fab (SEQ ID NOs: 19, 20) signal [5]: 2.02
- Anti-PSMA Fab signal in the presence of PSMA [6]: 0.0901

Binder: DLRLCKPAWMCDFI [Phage-1781 (clonal phage displaying the peptide of SEQ ID NO: 2077)]
- Anti-PSMA Fab (SEQ ID NOs: 19, 20) signal [5]: 1.95
- Anti-PSMA Fab signal in the presence of PSMA [6]: 0.0601

Binder: LDKWCVPKWMCSGL [Phage-1782 (clonal phage displaying the peptide of SEQ ID NO: 2078)]
- Anti-PSMA Fab (SEQ ID NOs: 19, 20) signal [5]: 1.92
- Anti-PSMA Fab signal in the presence of PSMA [6]: 0.0742

Binder: DVKLCKPEWMCYGL [Phage-1786 (clonal phage displaying the peptide of SEQ ID NO: 2082)]
- Anti-PSMA Fab (SEQ ID NOs: 19, 20) signal [5]: 1.75
- Anti-PSMA Fab signal in the presence of PSMA [6]: 0.0637

B11: Phage-1835 (peptide)
peptide: YEKWCVPDWMCSMI
notes: as for B1
- Anti-PSMA Fab signal in the presence of PSMA [3]: 0.0678
- Anti-PSMA Fab (SEQ ID NOs: 19, 20) signal [4]: 2.28

Binder: LEKLCKPAWMCVNF [Phage-1788 (clonal phage displaying the peptide of SEQ ID NO: 2084)]
- Anti-PSMA Fab (SEQ ID NOs: 19, 20) signal [5]: 1.66
- Anti-PSMA Fab signal in the presence of PSMA [6]: 0.107

Binder: EFKWCIPSWMCHET [Phage-1778 (clonal phage displaying the peptide of SEQ ID NO: 2074)]
- Anti-PSMA Fab (SEQ ID NOs: 19, 20) signal [5]: 2.02
- Anti-PSMA Fab signal in the presence of PSMA [6]: 0.0857

B12: Phage-1842 (peptide)
peptide: VERWCVPEWMCHWI
notes: as for B1
- Anti-PSMA Fab signal in the presence of PSMA [3]: 0.0977
- Anti-PSMA Fab (SEQ ID NOs: 19, 20) signal [4]: 2.23

B13: Phage-1833 (peptide)
peptide: DIPWCIPPWMCAGS
modifications: cysteine pairing not given here; also: displayed on phage as pIII fusion, pIII sequence and linker not given here
notes: as for B1
- Anti-PSMA Fab signal in the presence of PSMA [3]: 0.112
- Anti-PSMA Fab (SEQ ID NOs: 19, 20) signal [4]: 2.28
